Measured values as given in the Immune Epitope Database (IEDB).

How the values were obtained:
HLA-C*12:03 = assay: IEDB peptide-MHC binding, purified MHC/direct/fluorescence; filed as Kd, often an IC50 or EC50 that approximates it; ≥ and ≤ were set here for values at or beyond the usual limits of such assays
HLA-A*01:01 [1] = assay: IEDB peptide-MHC binding, purified MHC/competitive/fluorescence; filed as Kd, often an IC50 or EC50 that approximates it; ≥ and ≤ were set here for values at or beyond the usual limits of such assays
HLA-B*58:01 [2] = assay: as above
HLA-B*15:17 = assay: IEDB peptide-MHC binding, purified MHC/direct/fluorescence; filed as Kd, often an IC50 or EC50 that approximates it; ≥ and ≤ were set here for values at or beyond the usual limits of such assays; conditions: source organism: Campylobacter jejuni RM1221
HLA-B*57:01 = assay: as above; conditions: source organism: Campylobacter jejuni RM1221
HLA-B*58:01 [3] = assay: as above
HLA-C*15:02 = assay: as above
HLA-B*15:42 = assay: IEDB peptide-MHC binding, purified MHC/competitive/fluorescence; filed as Kd, often an IC50 or EC50 that approximates it; ≥ and ≤ were set here for values at or beyond the usual limits of such assays
HLA-B*45:06 = assay: as above
HLA-B*83:01 = assay: as above
HLA-C*04:01 = assay: as above
HLA-B*53:01 = assay: IEDB peptide-MHC binding, purified MHC/competitive/fluorescence; ≥ and ≤ were set here for values at or beyond the usual limits of such assays; conditions: source organism: human gammaherpesvirus 4
HLA-C*03:03 = assay: IEDB peptide-MHC binding, purified MHC/direct/fluorescence; filed as Kd, often an IC50 or EC50 that approximates it; ≥ and ≤ were set here for values at or beyond the usual limits of such assays; conditions: source organism: Salmonella enterica subsp. enterica serovar Typhi str. CT18
HLA-B*15:01 [4] = assay: IEDB peptide-MHC binding, purified MHC/competitive/fluorescence; filed as Kd, often an IC50 or EC50 that approximates it; ≥ and ≤ were set here for values at or beyond the usual limits of such assays
HLA-A*01:01 [5] = assay: IEDB peptide-MHC binding, purified MHC/direct/fluorescence; filed as Kd, often an IC50 or EC50 that approximates it; ≥ and ≤ were set here for values at or beyond the usual limits of such assays
HLA-A*02:01 [6] = assay: as above
HLA-A*03:01 [7] = assay: as above
HLA-A*11:01 = assay: as above
HLA-A*24:02 = assay: as above
HLA-A*26:01 = assay: as above; conditions: source organism: Rickettsia felis URRWXCal2
HLA-A*31:01 = assay: as above; conditions: source organism: Rickettsia australis
HLA-A*69:01 = assay: as above
HLA-B*07:02 = assay: as above
HLA-B*08:01 = assay: as above; conditions: source organism: Rickettsia felis URRWXCal2
HLA-B*15:01 [8] = assay: as above
HLA-B*18:01 = assay: as above
HLA-B*27:05 = assay: as above
HLA-B*40:01 = assay: as above
HLA-B*44:02 = assay: as above
HLA-B*46:01 = assay: as above
HLA-A*02:03 = assay: IEDB peptide-MHC binding, purified MHC/competitive/fluorescence; filed as Kd, often an IC50 or EC50 that approximates it; ≥ and ≤ were set here for values at or beyond the usual limits of such assays; conditions: source organism: Haemophilus influenzae R3021
HLA-A*02:06 = assay: as above
HLA-A*02:11 = assay: as above; conditions: source organism: Haemophilus influenzae R3021
HLA-C*05:01 = assay: IEDB peptide-MHC binding, purified MHC/direct/fluorescence; filed as Kd, often an IC50 or EC50 that approximates it; ≥ and ≤ were set here for values at or beyond the usual limits of such assays; conditions: source organism: Haemophilus influenzae R2846
HLA-A*23:01 = assay: IEDB peptide-MHC binding, purified MHC/competitive/fluorescence; filed as Kd, often an IC50 or EC50 that approximates it; ≥ and ≤ were set here for values at or beyond the usual limits of such assays; conditions: source organism: Rickettsia bellii RML369-C
HLA-A*03:01 [9] = assay: as above; conditions: source organism: Salmonella enterica subsp. enterica serovar Typhi
HLA-A*02:01 [10] = assay: as above; conditions: source organism: Yersinia pestis Nepal516
[11] = source organism: Escherichia coli
[12] = source organism: Mycobacterium tuberculosis C
[13] = source organism: Yellow fever virus 1899/81
[14] = source organism: Rickettsia australis
[15] = source organism: Haemophilus influenzae
[16] = source organism: Giardia lamblia ATCC 50803
[17] = source organism: Salmonella enterica subsp. enterica serovar Paratyphi B str. SPB7
[18] = source organism: Salmonella enterica subsp. enterica serovar Typhi
[19] = source organism: Human herpesvirus 4 strain B95-8

Sequence: YSALRPHEY
- Kd (HLA-C*12:03; source organism: Escherichia coli B171): 9 nM
- Kd (HLA-A*01:01 [1]; [11]): 12 nM
- Kd (HLA-B*58:01 [2]; [11]): 1380 nM

Sequence: HSNSEYLMF
- Kd (HLA-B*15:17): 1.1 nM
- Kd (HLA-B*57:01): 134 nM
- Kd (HLA-B*58:01 [3]; source organism: Campylobacter jejuni RM1221): 0.0055 µM
- Kd (HLA-C*15:02; source organism: Campylobacter jejuni): 93 nM

Sequence: RLYQYSFAK
- Kd (HLA-B*15:42; [12]): ≥ 5 µM
- Kd (HLA-B*45:06; [12]): ≥ 5 µM
- Kd (HLA-B*83:01; [12]): ≥ 5 µM
- Kd (HLA-C*04:01; [12]): ≥ 5 µM

Sequence: MTAASYARY
- IC50 (HLA-B*53:01): ≥ 20 µM

Sequence: REMHHLVEF
- Kd (HLA-B*15:42; [13]): ≥ 5 µM
- Kd (HLA-B*45:06; [13]): ≥ 5 µM
- Kd (HLA-B*83:01; [13]): ≥ 5 µM
- Kd (HLA-C*04:01; [13]): ≥ 5 µM

Sequence: MLNRYKLIY
- IC50 (HLA-B*53:01): 0.171 µM

Sequence: MMQTYTGAL
- Kd (HLA-C*03:03): 119 nM
- Kd (HLA-B*15:01 [4]; source organism: Salmonella enterica subsp. enterica serovar Typhi str. CT18): 64.9 nM

Sequence: ATYGTAVNK
- Kd (HLA-A*01:01 [5]; [14]): ≥ 20 µM
- Kd (HLA-A*02:01 [6]; [14]): ≥ 20000 nM
- Kd (HLA-A*03:01 [7]; [14]): 83.3 nM
- Kd (HLA-A*11:01; [14]): 29.6 nM
- Kd (HLA-A*24:02; [14]): ≥ 20 µM
- Kd (HLA-A*26:01): ≥ 20 µM
- Kd (HLA-A*31:01): 37.1 nM
- Kd (HLA-A*69:01; [14]): ≥ 20000 nM
- Kd (HLA-B*07:02; [14]): ≥ 20 µM
- Kd (HLA-B*08:01): ≥ 20 µM
- Kd (HLA-B*15:01 [8]; [14]): ≥ 20 µM
- Kd (HLA-B*18:01; [14]): ≥ 20 µM
- Kd (HLA-B*27:05; [14]): ≥ 20 µM
- Kd (HLA-B*40:01; [14]): ≥ 20 µM
- Kd (HLA-B*44:02; [14]): ≥ 20 µM
- Kd (HLA-B*46:01; [14]): ≥ 20 µM
- Kd (HLA-B*58:01 [3]; [14]): ≥ 20 µM

Sequence: MLEEMQSAV
- Kd (HLA-A*01:01 [5]; [15]): 2.1 µM
- Kd (HLA-A*02:01 [6]; [15]): 71 nM
- Kd (HLA-A*69:01; [15]): 2660 nM
- Kd (HLA-B*15:01 [8]; [15]): ≥ 67.2 µM
- Kd (HLA-A*02:03): 4.4 nM
- Kd (HLA-A*02:06; source organism: Haemophilus influenzae R3021): ≤ 0.1 nM
- Kd (HLA-A*02:11): ≤ 0.1 nM

Sequence: IFQKISFFW
- Kd (HLA-A*24:02; source organism: Cryptosporidium parvum Iowa II): 0.017 µM

Sequence: TSDEIYMTF
- Kd (HLA-C*05:01): 16 nM
- Kd (HLA-C*15:02; source organism: Haemophilus influenzae R2846): ≥ 20000 nM

Sequence: WLKEKHEEL
- Kd (HLA-A*01:01 [5]; [16]): ≥ 20 µM
- Kd (HLA-A*02:01 [6]; [16]): 304 nM
- Kd (HLA-A*03:01 [7]; [16]): ≥ 20000 nM
- Kd (HLA-A*11:01; [16]): ≥ 20000 nM
- Kd (HLA-A*24:02; [16]): ≥ 20 µM
- Kd (HLA-B*07:02; [16]): ≥ 20 µM
- Kd (HLA-B*15:01 [8]; [16]): 0.498 µM
- Kd (HLA-B*18:01; [16]): ≥ 20 µM
- Kd (HLA-B*27:05; [16]): ≥ 20 µM
- Kd (HLA-B*40:01; [16]): ≥ 20 µM
- Kd (HLA-B*44:02; [16]): ≥ 20 µM
- Kd (HLA-B*46:01; [16]): ≥ 20 µM
- Kd (HLA-B*58:01 [3]; [16]): ≥ 20 µM

Sequence: FSDLLSMAW
- Kd (HLA-A*01:01 [1]; [17]): 1.4 nM
- Kd (HLA-B*15:01 [4]; [17]): ≥ 20000 nM
- Kd (HLA-B*58:01 [2]; [17]): 2.4 nM

Sequence: HPVLVTATL
- IC50 (HLA-B*53:01): 3.91 µM

Sequence: VMLQIPFYK
- Kd (HLA-A*23:01): 308 nM

Sequence: ASIADILTY
- Kd (HLA-A*01:01 [1]; [18]): 764 nM
- Kd (HLA-A*03:01 [9]): ≥ 20 µM
- Kd (HLA-B*15:01 [4]; [18]): 425 nM
- Kd (HLA-B*58:01 [2]; [18]): 20.7 nM

Sequence: KAVETPILV
- Kd (HLA-C*12:03; [19]): ≤ 1 nM
- Kd (HLA-C*15:02; [19]): 51 nM

Sequence: RQPLNIQAI
- Kd (HLA-A*02:01 [10]): 305 nM
- Kd (HLA-A*02:06; source organism: Yersinia pestis Nepal516): 59.2 nM
